Assay results from IntAct's records for PubMed 40088780.

Target: tor1a_human TOR1A (UniProt O14656)

With “Torsin-1A-interacting protein 2 (Homo sapiens), Q8NFQ8 R412G” the “effect of a mutation on the interaction” value was “decreasing interaction strength”.
